Measured values as given in patent publication US7608683B2, “Stress proteins and peptides and methods of use thereof” (The Regents of the University of California, priority 2000, dated 2009).

System: PBMC of subjects with JIA
Test: T cell proliferation assay, PBMC of subjects with JIA
Type: cell-based, human
Conditions: majority of JIA subjects; SI of 2 or higher positive

B1: whole human hsp60: whole human hsp60 protein (protein)
chain: MLRLPTVFRQMRPVSRVLAPHLTRAYAKDVKFGADARALMLQGVDLLADAVAVTMGPKGRTVIIEQGWGSPKVTKDGVTVAKSIDLKDKYKNIGAKLVQDVANNTNEEAGDGTTTATVLARSIAKEGFEKISKGANPVEIRRGVMLAVDAVIAELKKQSKPVTTPEEIAQVATISANGDKEIGNIISDAMKKVGRKGVITVKDGKTLNDELEIIEGMKFDRGYISPYFINTSKGQKCEFQDAYVLLSEKKISSIQSIVPALEIANAHRKPLVIIAEDVDGEALSTLVLNRLKVGLQVVAVKAPGFGDNRKNQLKDMAIATGGAVFGEEGLTLNLEDVQPHDLGKVGEVIVTKDDAMLLKGKGDKAQIEKRIQEIIEQLDVTTSEYEKEKLNERLAKLSDGVAVLKVGGTSDVEVNEKKDRVTDALNATRAAVEEGIVLGGGCALLRCIPALDSLTPANEDQKIGIEIIKRTLKIPAMTIAKNAGVEGSLIVEKIMQSSSEVGYDAMAGDFVNMVEKGIIDPTKVVTALLDAAGVASLLTTAEVVVTEIPKEEKDPGMGAMGGMGGGMGGGMF
modifications: Homo sapiens hsp60
notes: whole human hsp60 protein
T cell proliferative response to whole hsp60: positive T cell proliferative response
